Results from patent publication US20190010242A1 (INHIBRX, published 2019).

B1: Dual-affinity Re-targeting Antibody (DART)-monomeric Fc format targeting B7H3 and CD3 (bispecific antibody)
chain 1: DIQLTQSPSFLSASVGDRVTITCKASQNVDTNVAWYQQKPGKAPKALIYSASYRYSGVPSRFSGSGSGTDFTLTISSLQPEDFATYYCQQYNNYPFTFGQGTKLEIKGGGSGGGGEVQLVESGGGLVQPGGSLRLSCAASGFTFSTYAMNWVRQAPGKGLEWVGRIRSKYNNYATYYADSVKDRFTISRDDSKNSLYLQMNSLKTEDTAVYYCVRHGNFGNSYVSWFAYWGQGTLVTVSSGGCGGGEVAALEKEVAALEKEVAALEKEVAALEKGGGDKTHTCPPCPAPEAAGGPSVFLFPPKPKDTLMISRTPEVTCVVVDVSHEDPEVKFNWYVDGVEVHNAKTKPREEQYNSTYRVVSVLTVLHQDWLNGKEYKCKVSNKALPAPIEKTISKAKGQPREPQVYTLPPSREEMTKNQVSLWCLVKGFYPSDIAVEWESNGQPENNYKTTPPVLDSDGSFFLYSKLTVDKSRWQQGNVFSCSVMHEALHNHYTQKSLSLSPGK
chain 2: QAVVTQEPSLTVSPGGTVTLTCRSSTGAVTTSNYANWVQQKPGQAPRGLIGGTNKRAPWTPARFSGSLLGGKAALTITGAQAEDEADYYCALWYSNLWVFGGGTKLTVLGGGGSGGGGEVQLVESGGGLVQPGGSLRLSCAASGFTFSSFGMHWVRQAPGKGLEWVAYISSDSSAIYYADTVKGRFTISRDNAKNSLYLQMNSLRDEDTAVYYCGRGRENIYYGSRLDYWGQGTTVTVSSGGCGGGKVAALKEKVAALKEKVAALKEKVAALKE
chain 3: not shown
notes: also called DART-Fc B7H3×CD3; DART-Fc
B2: cx3309 (CD20-targeting constrained CD3 engaging construct, GA101 scFvs) (bispecific antibody)
chain 1: not shown
chain 2: DKTHTCPPCPAPELLGGPSVFLFPPKPKDTLMISRTPEVTCVVVDVSHEDPEVKFNWYVDGVEVHNAKTKPREEQYNSTYRVVSVLTVLHQDWLNGKEYKCKVSNKALPAPIEKTISKAKGQPREPQVYTLPPCRDELTKNQVSLWCLVKGFYPSDIAVEWESNGQPENNYKTTPPVLDSDGSFFLYSKLTVDKSRWQQGNVFSCSVMHEALHNHYTQKSLSLSPTGGSGGGGIEPDIGGSGGSEVQLVESGGGLVQPGGSLRLSCAASGFTFNTYAMNWVRQAPGKCLEWVARIRSKYNNYATYYADSVKGRFTISRDDAKNTLYLQMSSLRAEDTAVYYCVRHGNFGNSYVSWFAYWGQGTLVTVKP
scFv: QVQLVQSGAEVKKPGSSVKVSCKASGYAFSYSWINWVRQAPGQGLEWMGRIFPGDGDTDYNGKFKGRVTITADKSTSTAYMELSSLRSEDTAVYYCARNVFDGYWLVYWGQGTLVTVSGSGGGGSGGGGTGGGGSDIVMTQTPLSLPVTPGEPASISCRSSKSLLHSNGITYLYWYLQKPGQSPQLLIYQMSNLVSGVPDRFSGSGSGTDFTLKISRVEAEDVGVYYCAQNLELPYTFGGGTKVEIK
notes: also called cx3490
B3: cx3313 (B7H3-targeting constrained CD3 engager, B7H3 Fab) (bispecific antibody)
chain 1: not shown
chain 2: B2 chain 2
heavy: EVQLVESGGGLVQPGGSLRLSCAASGFTFSSFGMHWVRQAPGKGLEWVAYISSDSSAIYYADTVKGRFTISRDNAKNSLYLQMNSLRDEDTAVYYCGRGRENIYYGSRLDYWGQGTTVTVSSASTKGPSVFPLAPSSKSTSGGTAALGCLVKDYFPEPVTVSWNSGALTSGVHTFPAVLQSSGLYSLSSVVTVPSSSLGTQTYICNVNHKPSNTKVDKKVEPKSC
light: DIQLTQSPSFLSASVGDRVTITCKASQNVDTNVAWYQQKPGKAPKALIYSASYRYSGVPSRFSGSGSGTDFTLTISSLQPEDFATYYCQQYNNYPFTFGQGTKLEIKRTVAAPSVFIFPPSDEQLKSGTASVVCLLNNFYPREAKVQWKVDNALQSGNSQESVTEQDSKDSTYSLSSTLTLSKADYEKHKVYACEVTHQGLSSPVTKSFNRGEC
notes: also called cx3313 FAB
B4: cx3314 (B7H3-targeting constrained CD3 engager, B7H3 scFv) (bispecific antibody)
chain 1: not shown
chain 2: B2 chain 2
scFv: EVQLVESGGGLVQPGGSLRLSCAASGFTFSSFGMHWVRQAPGKGLEWVAYISSDSSAIYYADTVKGRFTISRDNAKNSLYLQMNSLRDEDTAVYYCGRGRENIYYGSRLDYWGQGTTVTVSSSGGGGSGGGGSGGGGSDIQLTQSPSFLSASVGDRVTITCKASQNVDTNVAWYQQKPGKAPKALIYSASYRYSGVPSRFSGSGSGTDFTLTISSLQPEDFATYYCQQYNNYPFTFGQGTKLEIK
notes: also called cx3314 scFv

What was measured:
B7H3 on A375 cells = target: T1, B7H3 on A375 cells (UniProt Q5ZPR3 29-534, limits assumed); assay: flow cytometry on A375 cells
T1 construct: whole, on cells; also called BH73
T1 sequence (looked up): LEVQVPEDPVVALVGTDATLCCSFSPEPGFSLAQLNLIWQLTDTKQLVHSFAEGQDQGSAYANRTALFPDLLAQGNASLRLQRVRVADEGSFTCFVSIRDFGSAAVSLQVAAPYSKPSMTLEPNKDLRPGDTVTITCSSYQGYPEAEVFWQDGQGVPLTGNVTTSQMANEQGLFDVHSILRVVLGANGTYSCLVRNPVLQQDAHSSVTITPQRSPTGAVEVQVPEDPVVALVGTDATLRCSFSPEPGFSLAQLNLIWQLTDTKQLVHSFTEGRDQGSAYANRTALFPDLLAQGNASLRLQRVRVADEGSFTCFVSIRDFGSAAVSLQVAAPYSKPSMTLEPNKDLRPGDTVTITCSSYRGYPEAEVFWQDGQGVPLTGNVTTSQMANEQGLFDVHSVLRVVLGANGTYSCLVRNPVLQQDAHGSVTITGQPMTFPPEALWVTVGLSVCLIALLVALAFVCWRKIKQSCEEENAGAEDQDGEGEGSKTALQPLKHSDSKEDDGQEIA

[1] = target: T2, CD3 on the surface of primary human T cells (human, UniProt P07766 23-207); assay: flow cytometry on primary human T cells
T2 construct: whole, on cells; CD3 is a multi-chain complex; also called CD3ε

[2] = target: T2, CD3 on the surface of primary human T …; assay: flow cytometry on primary human T cells (FIGS. 14C and 14D)

T2 sequence (P07766 23-207): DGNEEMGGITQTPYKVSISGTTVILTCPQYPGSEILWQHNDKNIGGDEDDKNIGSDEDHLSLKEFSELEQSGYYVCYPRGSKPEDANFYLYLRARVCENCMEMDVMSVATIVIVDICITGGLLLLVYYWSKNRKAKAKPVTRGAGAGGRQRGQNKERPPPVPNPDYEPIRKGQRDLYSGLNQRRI

| Binder | binding result (B7H3 on A375 cells) | binding result [1] | binding result [2] |
| --- | --- | --- | --- |
| B1 | binds | binds |  |
| B2 |  | no binding (tested: 100 nM) |  |
| B3 |  |  | no binding |
| B4 |  |  | no binding |
